Test [1] concerns the target PstA (PII-like signal transduction protein A) from Listeria monocytogenes (Listeria monocytogenes). In words: SEC; gel filtration column (S-300, GE Healthcare) of purified LmPstA.
Test [2] has the same target. In words: crystal structure; apo LmPstA (10 mg/mL); sitting drop, 20°C, 20% PEG3350, 0.1 mol/L bis-Tris pH 5.5, 0.1 mol/L ammonium acetate; 2.9 Å; trimer in the asymmetric unit.
Test [3] shares this target. In words: crystal structure; LmPstA (20 mg/mL) cocrystallised with 2.5 mmol/L c-di-AMP; sitting drop, 20°C, 12% PEG3350, 0.1 mol/L sodium malonate pH 4.0; 1.6 Å; trimer in the asymmetric unit.
The target of test [4] is T1, PstA (LmPstA) (Listeria monocytogenes, UniProt Q8Y3Y7, F36A).
T1 construct: gene lmo2692; pstA F36A in pET20b, C-terminal His-tag
In words: DRaCALA binding titration with […]-c-di-AMP.

Test [5] concerns the target T2, PstA (LmPstA) (Listeria monocytogenes, UniProt Q8Y3Y7, N41A).
T2 construct: gene lmo2692; pstA N41A in pET20b, C-terminal His-tag
In words: DRaCALA binding titration with […]-c-di-AMP (saturation not achieved).

Take “PstA (PII-like signal transduction protein A) from Listeria monocytogenes (natural protein)”: the stoichiometry N in test [1], in test [2] and in test [3] was 3 each time.

For `Nc1ncnc2c1ncn2[C@@H]1O[C@@H]2COP(=O)(O)O[C@H]3[C@@H](O)[C@H](n4cnc5c(N)ncnc54)O[C@@H]3COP(=O)(O)O[C@H]2[C@H]1O` [c-di-AMP], the Kd in test [4] is 7 µM; in test [5], roughly 140 µM.

(Values after article PMC4475381, “Molecular basis for the recognition of cyclic-di-AMP by PstA, a PII-like signal transduction protein” (MicrobiologyOpen, 2015).)
